From US20220056125A1 (CEPHALON, published 2022)
“And” between values parts separate entries of the source, which are not always exact repeats. Identical values can stand only once.

T1: human PAR-2 (human, UniProt P55085 26-397)
T1 sequence: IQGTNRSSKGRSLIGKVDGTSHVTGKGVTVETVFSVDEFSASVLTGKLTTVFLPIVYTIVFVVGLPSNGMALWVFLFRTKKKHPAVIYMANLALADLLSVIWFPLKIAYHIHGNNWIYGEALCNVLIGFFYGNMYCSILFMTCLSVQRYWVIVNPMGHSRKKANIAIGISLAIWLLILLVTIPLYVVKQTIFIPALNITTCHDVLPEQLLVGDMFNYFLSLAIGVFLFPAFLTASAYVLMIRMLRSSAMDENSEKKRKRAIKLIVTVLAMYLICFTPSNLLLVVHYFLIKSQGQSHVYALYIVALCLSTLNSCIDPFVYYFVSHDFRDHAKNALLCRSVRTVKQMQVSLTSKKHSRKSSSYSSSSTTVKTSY


Each binder was assayed against T1, human PAR-2 (assay: cell-based or functional assay).

Row | Binder | PAR-2 β-arrestin cell based assay IC50, 2 µM SLIGKV | PAR-2 β-arrestin cell based assay IC50 (SLIGKV mark missing) [nM]
1 | P24E915 (antibody, human IgG4 S228P, kappa, V domains shown) VH: QVQLVQSGAEVKKPGSSVKVSCKASGFSLSSYAISWVRQAPGQGLEWMGVIWGNGNTYYAQKFQGRVTITADESTSTAYMELSSLRSEDTAVYYCARWKGYKDYPFDYWGQGTLVTVSS VL: EIVLTQSPATLSLSPGERATLSCKASQNVYKWLDWYQQKPGQAPRLLIYNAYSLATGIPARFSGSGSGRDFTLTISSLEPEDFAVYYCQQHNSGWTFGGGTKVEIKR | 1.16 nM | 
2 | P24E922 (antibody, human IgG4 S228P, kappa, V domains shown) VH: QVQLVQSGAEVKKPGSSVKVSCKASGFSLSSYAISWVRQAPGQGLEWMGVIWGNGNTYYAQKFQGRVTITADESTSTAYMELSSLRSEDTAVYYCARWRGWKDYPFDYWGQGTLVTVSS VL: EIVLTQSPATLSLSPGERATLSCRASQNIYKWLDWYQQKPGQAPRLLIYNAYSLATGIPARFSGSGSGRDFTLTISSLEPEDFAVYYCQQHNSGWTFGGGTKVEIKR | 1.01 nM | 
3 | P24E924 (antibody, human IgG4 S228P, kappa, V domains shown) VH: QVQLVQSGAEVKKPGSSVKVSCKASGFSLSSYAISWVRQAPGQGLEWMGVIWGNGNTYYAQKFQGRVTITADESTSTAYMELSSLRSEDTAVYYCARWRGWKDYPFDYWGQGTLVTVSS VL: EIVLTQSPATLSLSPGERATLSCRASQNVYKWLDWYQQKPGQAPRLLIYNAYSRATGIPARFSGSGSGRDFTLTISSLEPEDFAVYYCQQHNSGWTFGGGTKVEIKR | 0.79 nM | 
4 | P24E921 (antibody, human IgG4 S228P, kappa, V domains shown) VH: QVQLVQSGAEVKKPGSSVKVSCKASGFSLSSYAISWVRQAPGQGLEWMGVIWGNGNTYYAQKFQGRVTITADESTSTAYMELSSLRSEDTAVYYCARWRGFKDYPFDYWGQGTLVTVSS VL: EIVLTQSPATLSLSPGERATLSCKASQNVYKWLDWYQQKPGQAPRLLIYNAYSLATGIPARFSGSGSGRDFTLTISSLEPEDFAVYYCQQHGSGWTFGGGTKVEIKR | 1.9 nM | 
5 | P24E917 (antibody, human IgG4 S228P, kappa, V domains shown) VH: QVQLVQSGAEVKKPGSSVKVSCKASGFSLSSYAISWVRQAPGQGLEWMGVIWGNGNTYYAQKFQGRVTITADESTSTAYMELSSLRSEDTAVYYCARWKGYKDYPFDYWGQGTLVTVSS VL: EIVLTQSPATLSLSPGERATLSCKASQNVYKWLDWYQQKPGQAPRLLIYNAYSLATGIPARFSGSGSGRDFTLTISSLEPEDFAVYYCQQHGSGWTFGGGTKVEIKR | 0.93 nM | 
6 | P24E920 (antibody, human IgG4 S228P, kappa, V domains shown) VH: QVQLVQSGAEVKKPGSSVKVSCKASGFSLSSYAISWVRQAPGQGLEWMGVIWGNGNTYYAQKFQGRVTITADESTSTAYMELSSLRSEDTAVYYCARWRGFKDYPFDYWGQGTLVTVSS VL: EIVLTQSPATLSLSPGERATLSCRASQNVYKWLDWYQQKPGQAPRLLIYNAYSRATGIPARFSGSGSGRDFTLTISSLEPEDFAVYYCQQHNSGWTFGGGTKVEIKR | 1.32 nM | 
7 | P24E918 (antibody, human IgG4 S228P, kappa, V domains shown) VH: QVQLVQSGAEVKKPGSSVKVSCKASGFSLSSYAISWVRQAPGQGLEWMGVIWGNGNTYYAQKFQGRVTITADESTSTAYMELSSLRSEDTAVYYCARWRGFKDYPFDYWGQGTLVTVSS VL: EIVLTQSPATLSLSPGERATLSCRASQNIYKWLDWYQQKPGQAPRLLIYNAYSLATGIPARFSGSGSGRDFTLTISSLEPEDFAVYYCQQHNSGWTFGGGTKVEIKR | 1.18 nM | 
8 | P24E919 (antibody, human IgG4 S228P, kappa, V domains shown) VH: QVQLVQSGAEVKKPGSSVKVSCKASGFSLSSYAISWVRQAPGQGLEWMGVIWGNGNTYYAQKFQGRVTITADESTSTAYMELSSLRSEDTAVYYCARWRGFKDYPFDYWGQGTLVTVSS VL: EIVLTQSPATLSLSPGERATLSCKASQNVYKWLDWYQQKPGQAPRLLIYNAYSLATGIPARFSGSGSGRDFTLTISSLEPEDFAVYYCQQHNSGWTFGGGTKVEIKR | 1.44 nM | 
9 | P24E916 (antibody, human IgG4 S228P, kappa, V domains shown) VH: QVQLVQSGAEVKKPGSSVKVSCKASGFSLSSYAISWVRQAPGQGLEWMGVIWGNGNTYYAQKFQGRVTITADESTSTAYMELSSLRSEDTAVYYCARWKGYKDYPFDYWGQGTLVTVSS VL: EIVLTQSPATLSLSPGERATLSCRASQNVYKWLDWYQQKPGQAPRLLIYNAYSRATGIPARFSGSGSGRDFTLTISSLEPEDFAVYYCQQHNSGWTFGGGTKVEIKR | 1.1 nM | 
10 | P24E923 (antibody, human IgG4 S228P, kappa, V domains shown) VH: QVQLVQSGAEVKKPGSSVKVSCKASGFSLSSYAISWVRQAPGQGLEWMGVIWGNGNTYYAQKFQGRVTITADESTSTAYMELSSLRSEDTAVYYCARWRGWKDYPFDYWGQGTLVTVSS VL: EIVLTQSPATLSLSPGERATLSCKASQNVYKWLDWYQQKPGQAPRLLIYNAYSLATGIPARFSGSGSGRDFTLTISSLEPEDFAVYYCQQHNSGWTFGGGTKVEIKR | 0.99 nM | 

Further lines, results first:

Row | PAR-2 β-arrestin cell based assay IC50, 2 µM SLIGKV | PAR-2 β-arrestin cell based assay IC50 (SLIGKV mark missing) [nM] | Binder
11 | 3.64 nM and 1.84 nM |  | P24E953 (antibody, human IgG4 S228P, kappa, V domains shown) VH: QVQLVQSGAEVKKPGSSVKVSCKASGFSLSSYAISWVRQAPGQGLEWMGVIWGNQNVYYAQKFQGRVTITADESTSTAYMELSSLRSEDTAVYYCARWKGYKDYPFDYWGQGTLVTVSS VL: EIVLTQSPATLSLSPGERATLSCRASQNVYKWLDWYQQKPGQAPRLLIYDAYSRATGIPARFSGSGSGRDFTLTISSLEPEDFAVYYCQQHGSGWTFGGGTKVEIKR
12 | 2.4 nM |  | P24E971 (antibody, human IgG4 S228P, kappa, V domains shown) VH: QVQLVQSGAEVKKPGSSVKVSCKASGFSLSSYAISWVRQAPGQGLEWMGVIWGNGNVYYAQKFQGRVTITADESTSTAYMELSSLRSEDTAVYYCARWKGYKDYPFDYWGQGTLVTVSS VL: EIVLTQSPATLSLSPGERATLSCRASQNVYKWLDWYQQKPGQAPRLLIYNAYSRATGIPARFSGSGSGRDFTLTISSLEPEDFAVYYCQQHHSGWTFGGGTKVEIKR
13 | 1.5 nM |  | P24E935 (antibody, human IgG4 S228P, kappa, V domains shown) VH: QVQLVQSGAEVKKPGSSVKVSCKASGFSLSSYAISWVRQAPGQGLEWMGVIWGNGNVYYAQKFQGRVTITADESTSTAYMELSSLRSEDTAVYYCARWKGYKDHPFDYWGQGTLVTVSS VL: EIVLTQSPATLSLSPGERATLSCRASQNVYKWLDWYQQKPGQAPRLLIYNAYSRATGIPARFSGSGSGRDFTLTISSLEPEDFAVYYCQQHHHGWTFGGGTKVEIKR
14 | 2 nM |  | P24E931 (antibody, human IgG4 S228P, kappa, V domains shown) VH: QVQLVQSGAEVKKPGSSVKVSCKASGFSLSSYAISWVRQAPGQGLEWMGVIWGNGNVYYAQKFQGRVTITADESTSTAYMELSSLRSEDTAVYYCARWKGYKDYPFDYWGQGTLVTVSS VL: EIVLTQSPATLSLSPGERATLSCKASQNVYKWLDWYQQKPGQAPRLLIYNAYSLATGIPARFSGSGSGRDFTLTISSLEPEDFAVYYCQQHGSGWTFGGGTKVEIKR
15 | 1.8 nM |  | P24E936 (antibody, human IgG4 S228P, kappa, V domains shown) VH: QVQLVQSGAEVKKPGSSVKVSCKASGFSLSSYAISWVRQAPGQGLEWMGVIWGNGNVYYAQKFQGRVTITADESTSTAYMELSSLRSEDTAVYYCARWKGYKDHPFDYWGQGTLVTVSS VL: EIVLTQSPATLSLSPGERATLSCRASQNVYKWLDWYQQKPGQAPRLLIYNAYSRATGIPARFSGSGSGRDFTLTISSLEPEDFAVYYCQQHGHGWTFGGGTKVEIKR
16 | 1.4 nM |  | P24E932 (antibody, human IgG4 S228P, kappa, V domains shown) VH: QVQLVQSGAEVKKPGSSVKVSCKASGFSLSSYAISWVRQAPGQGLEWMGVIWGNGNVYYAQKFQGRVTITADESTSTAYMELSSLRSEDTAVYYCARWKGYKDYPFDYWGQGTLVTVSS VL: EIVLTQSPATLSLSPGERATLSCRASQNIYKWLDWYQQKPGQAPRLLIYNAYSLATGIPARFSGSGSGRDFTLTISSLEPEDFAVYYCQQHNSGWTFGGGTKVEIKR
17 | 2.55 nM and 1.17 nM |  | P24E951 (antibody, human IgG4 S228P, kappa, V domains shown) VH: QVQLVQSGAEVKKPGSSVKVSCKASGFSLSSYAISWVRQAPGQGLEWMGVIWGNQNVYYAQKFQGRVTITADESTSTAYMELSSLRSEDTAVYYCARWKGYKDYPFDYWGQGTLVTVSS VL: EIVLTQSPATLSLSPGERATLSCRASQNVYKWLDWYQQKPGQAPRLLIYNAYSRATGIPARFSGSGSGRDFTLTISSLEPEDFAVYYCQQHGSGWTFGGGTKVEIKR
18 | 1.4 nM | 1.7 | P24E930 (antibody, human IgG4 S228P, kappa, V domains shown) VH: QVQLVQSGAEVKKPGSSVKVSCKASGFSLSSYAISWVRQAPGQGLEWMGVIWGNGNVYYAQKFQGRVTITADESTSTAYMELSSLRSEDTAVYYCARWKGYKDYPFDYWGQGTLVTVSS VL: EIVLTQSPATLSLSPGERATLSCRASQNVYKWLDWYQQKPGQAPRLLIYNAYSRATGIPARFSGSGSGRDFTLTISSLEPEDFAVYYCQQHGSGWTFGGGTKVEIKR
19 | 1.5 nM |  | P24E934 (antibody, human IgG4 S228P, kappa, V domains shown) VH: QVQLVQSGAEVKKPGSSVKVSCKASGFSLSSYAISWVRQAPGQGLEWMGVIWGNGNVYYAQKFQGRVTITADESTSTAYMELSSLRSEDTAVYYCARWKGYKDHPFDYWGQGTLVTVSS VL: EIVLTQSPATLSLSPGERATLSCRASQNVYKWLDWYQQKPGQAPRLLIYNAYSRATGIPARFSGSGSGRDFTLTISSLEPEDFAVYYCQQHHSGWTFGGGTKVEIKR
20 | 1.4 nM |  | P24E933 (antibody, human IgG4 S228P, kappa, V domains shown) VH: QVQLVQSGAEVKKPGSSVKVSCKASGFSLSSYAISWVRQAPGQGLEWMGVIWGNGNTYYAQKFQGRVTITADESTSTAYMELSSLRSEDTAVYYCARWKGYKDYPFDYWGQGTLVTVSS VL: EIVLTQSPATLSLSPGERATLSCRASQNVYKWLDWYQQKPGQAPRLLIYNAYSRATGIPARFSGSGSGRDFTLTISSLEPEDFAVYYCQQHGSGWTFGGGTKVEIKR
